In assay [1] the target is T1, human GLP1R (Homo sapiens, UniProt P43220).
T1 construct: 61-1452; 1-463; expressed in transfected cells; host or cells: GLP1R gene humanized homozygous mice (C57BL/6 ES cells); The human CDS is inserted into mouse exon 1 at the endogenous Glp1r locus, under mouse regulatory elements
The assay is described as follows: In vivo drug efficacy experiment (Example 2), GLP1R gene humanized homozygous mice. More on the design: species or system mouse. As for the experimental part: (§1) Ten 7-week-old male wild-type C57BL/6 mice (WT) and ten GLP1R gene humanized homozygous mice (H/H) were selected, and randomly divided (according to body weight) into control group (G1, G3) and administration Group (G2, G4). The control group was injected subcutaneously (s.c.) phosphate buffered saline (PBS). The administration group was injected subcutaneously with 10 mg/kg GLP1R agonist Dulaglutide, administered once every two days, with a total of 5 administrations. Before each administration, the body weight and non-fasting blood glucose concentration of the mice were measured. After the second and fourth doses, the mice were fasted overnight, and the glucose tolerance test (IPGTT) was used to evaluate the tolerance of the mice to glucose by intraperitoneal injection of 2 g/kg glucose D-Glucose. Blood was collected to determine the blood glucose value at 15 min, 30 min, 60 min, 120 min after injection, and the area under the curve (AUC) was calculated.

The target in assay [2] is T1, human GLP1R. As to conditions: background statement, no test described; cited from earlier work.
For assay [3], the target named is T1, human GLP1R. The assay is described as follows: High-fat diet induced obesity model (Example 3), GLP1R humanized homozygous mice. It counts as in vivo, mouse. The following applies: G4 GLP1R humanized. As to the method: (§2) Twenty 7-week-old male wild-type C57BL/6 mice (WT) and twenty GLP1R humanized homozygous mice (I/H) were selected. All mice were given a high-fat diet for 12 weeks to induce obesity and high blood sugar.
(§3) On the 13th week, the mice were grouped and administered either Dulaglutide or PBS according to Table 5. The day of grouping was recorded as DO, the next day was recorded as D1, and so on for calculation. When a mouse lost more than 20% of its body weight, it was euthanized to end the experiment. The administration group was given 1 mg/kg Dulaglutide by subcutaneous injection (sc), and the control group was given the same dose of control PBS, once every two days, with a total of 5 administrations. The test protocol is as follows: the random blood glucose (RBG) concentration and body weight were measured before each administration; the mice were fasted after the second administration, and the glucose tolerance test ([…]) was carried out the next day (protocol: after the fasting blood glucose was tested, 2 g/kg D-glucose was injected intraperitoneally, and blood glucose was measured at 15 min, 30 min, 60 min and 120 min after injection; the glucose solution was prepared at the ratio of 20% mass fraction, the administration dose was 10 ul/g body weight, and the solvent was physiological saline). After the fourth administration, the mice were fasted, and the fasting blood glucose was measured on the second day; blood was collected from the canthus within 48 hours after the last administration, and the supernatant was obtained by centrifugation. The levels of serum glucagon and insulin were determined by ELISA.

The target in assay [4] is T2, mouse GLP1R (Mus musculus, UniProt O35659).
T2 sequence (O35659 22-463): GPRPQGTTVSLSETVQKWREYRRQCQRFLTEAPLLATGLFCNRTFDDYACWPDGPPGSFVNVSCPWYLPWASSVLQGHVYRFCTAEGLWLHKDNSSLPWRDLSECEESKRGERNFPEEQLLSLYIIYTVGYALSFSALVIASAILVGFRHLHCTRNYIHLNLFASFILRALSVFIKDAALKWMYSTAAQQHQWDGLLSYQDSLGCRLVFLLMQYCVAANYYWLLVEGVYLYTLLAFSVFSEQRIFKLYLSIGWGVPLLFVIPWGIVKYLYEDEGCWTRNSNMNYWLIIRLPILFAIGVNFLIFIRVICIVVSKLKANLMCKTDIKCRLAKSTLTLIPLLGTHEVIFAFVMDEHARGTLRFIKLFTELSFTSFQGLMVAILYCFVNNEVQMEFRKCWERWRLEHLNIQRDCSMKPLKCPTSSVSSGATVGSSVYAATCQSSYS
The assay is described as follows: High-fat diet induced obesity model (Example 3), wild-type C57BL/6 mice. It counts as in vivo. Details: Ten 7-week-old male wild-type C57BL/6 mice (WT); endogenous in cells; host or cells: wild-type C57BL/6 mice (whole animal, in vivo). As for the experimental part: as §2, §3

Assay [5] has as its target T2, mouse GLP1R. As to conditions: background statement, no test described; cited from earlier work.
The target in assay [6] is T2, mouse GLP1R. The assay is described as follows: In vivo drug efficacy experiment (Example 2), wild-type C57BL/6 mice. More on the design: Ten 7-week-old male wild-type C57BL/6 mice (WT); endogenous in cells; host or cells: wild-type C57BL/6 mice (whole animal, in vivo). As to the method: as §1

T1 sequence (P43220 24-463): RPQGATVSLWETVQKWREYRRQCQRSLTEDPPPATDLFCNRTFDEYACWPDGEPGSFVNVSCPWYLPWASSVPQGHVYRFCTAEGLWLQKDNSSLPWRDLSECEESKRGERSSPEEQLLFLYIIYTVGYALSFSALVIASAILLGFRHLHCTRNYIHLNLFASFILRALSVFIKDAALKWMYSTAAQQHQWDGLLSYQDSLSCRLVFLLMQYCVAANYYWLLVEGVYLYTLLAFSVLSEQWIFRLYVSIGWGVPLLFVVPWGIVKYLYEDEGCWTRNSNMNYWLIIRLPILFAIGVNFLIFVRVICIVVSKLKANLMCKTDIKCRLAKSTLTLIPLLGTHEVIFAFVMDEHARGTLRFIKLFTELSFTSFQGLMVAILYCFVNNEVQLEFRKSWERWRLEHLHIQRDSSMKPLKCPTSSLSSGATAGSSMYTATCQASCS

Regarding Dulaglutide, the “body weight during the experiment” value was “remained stable and did not change significantly” with human GLP1R [1] (G4, H/H mice, s.c. Q2d x 5, 10 mg/kg / 1 mg/kg (Table 5), FIG. 11); “remained stable and did not change significantly” in the assay with mouse GLP1R [6] (G2, WT C57BL/6 mice, s.c. Q2d x 5, 10 mg/kg / 1 mg/kg (Table 5), FIG. 11). Also, the fasting blood glucose result in the assay with human GLP1R [1] (G4 H/H vs PBS control G3, fasted overnight, s.c. Q2d x 5, FIG. 13) was “reduced”; with mouse GLP1R [6] (G2 WT vs PBS control G1, fasted overnight, s.c. Q2d x 5, FIG. 13) it was “reduced”. For the same substance, the non-fasting blood glucose result in the assay with human GLP1R [1] (G4 H/H vs PBS control G3, s.c. Q2d x 5, 10 mg/kg / 1 mg/kg (Table 5), FIG. 12) was “reduced”; with mouse GLP1R [6] (G2 WT vs PBS control G1, s.c. Q2d x 5, 10 mg/kg / 1 mg/kg (Table 5), FIG. 12), “reduced”. Further, the “area under the curve (AUC) of IPGTT” value in the assay with human GLP1R [1] (H/H mice, 2 g/kg D-Glucose i.p., blood glucose 15-120 min, P≤0.05, FIG. 15) is “significant downward trend”; with mouse GLP1R [6] (WT mice, 2 g/kg D-Glucose i.p., blood glucose 15-120 min, P≤0.05, FIG. 15), “significant downward trend”. Further, the “affinity for human GLP1R” value in the assay with human GLP1R [2] was “has affinity”. The body weight result is listed as “decreased more significantly” with human GLP1R [3] (high-fat diet 12 weeks, 1 mg/kg s.c. Q2d*5, vs PBS control, FIG. 23) and “decreased more significantly” with mouse GLP1R [4] (G2 C57BL/6, high-fat diet 12 weeks, 1 mg/kg s.c. Q2d*5, vs PBS control, FIG. 23). In addition, the “blood glucose (non-fasting)” value is “significantly reduced” with human GLP1R [3] (high-fat diet, 1 mg/kg s.c. Q2d*5, FIG. 25) and “significantly reduced” in the assay with mouse GLP1R [4] (G2 C57BL/6, high-fat diet, 1 mg/kg s.c. Q2d*5, FIG. 25). Moreover, the “food intake in the 24 hours after the first administration” value is listed as “significantly lower” with human GLP1R [3] (high-fat diet, 1 mg/kg s.c., vs control group, FIG. 24B) and “significantly lower” with mouse GLP1R [4] (G2 C57BL/6, high-fat diet, 1 mg/kg s.c., vs control group, FIG. 24B). Besides, the “plasma levels of glucagon” value with human GLP1R [3] (high-fat diet, 24 hours after the drug administration, FIG. 28) is “decreased, and the decrease was more obvious”; in the assay with mouse GLP1R [4] (G2 C57BL/6, high-fat diet, 24 hours after the drug administration, FIG. 28), “decreased”. Also, the “level of glucagon-like peptide-1” value with human GLP1R [3] (high-fat diet, 24 hours after the drug administration, FIG. 29) is listed as “significantly increased”; in the assay with mouse GLP1R [4] (G2 C57BL/6, high-fat diet, 24 hours after the drug administration, FIG. 29), “significantly increased”. The insulin level result with human GLP1R [3] (high-fat diet, Day 10, 15 min time point, vs control group, FIG. 27) is on record as “tendency to increase”; in the assay with mouse GLP1R [4] (G2 C57BL/6, high-fat diet, Day 10, 15 min time point, vs control group, FIG. 27) it was “tendency to increase”. The “glucose tolerance (glucose tolerance test)” value with human GLP1R [3] (high-fat diet, after second administration, fasted, 2 g/kg D-glucose i.p., FIG. 26) is given as “significantly improve”; in the assay with mouse GLP1R [4] (G2 C57BL/6, high-fat diet, after second administration, fasted, 2 g/kg D-glucose i.p., FIG. 26) it was “significantly improve”. For the same substance, the “affinity for mouse GLP1R” value in the assay with mouse GLP1R [5] is listed as “has affinity”.

The record behind these values is patent publication US20230363362A1, “GENETICALLY MODIFIED NON-HUMAN ANIMAL WITH HUMAN OR CHIMERIC GLP1R” (Biocytogen Pharmaceuticals (Beijing) Co., Ltd., priority 2020, published 2023).
